Test results as given in the Human Domainome abundance scans (Beltran et al. 2025).
± gives the uncertainty stated by the source.

B1: Intersectin-1, residues 1156 to 1213; numbered along this chain, Q15811 (parent)
chain: AVCQVIGMYDYTAQNDDELAFNKGQIINVLNKEDPDWWKGEVNGQVGLFPSNYVKLTT

Variants of: B1
Assay: abundance fitness (aPCA) (normalised: wild type 0, dead -1); higher = more abundant; growth selection in yeast, the domain comes from the species named
Details: Homo sapiens

Variant	abundance fitness
AVCQVIGMYDYTAQNHDELAFNKGQIINVLNKEDPDWWKGEVNGQVGLFPSNYVKLTT [D16H]	-0.614 ± 0.2
AVCQVIGMYDYTAQNYDELAFNKGQIINVLNKEDPDWWKGEVNGQVGLFPSNYVKLTT [D16Y]	-0.588 ± 0.21
AVCQVIGMYDYTAQNRDELAFNKGQIINVLNKEDPDWWKGEVNGQVGLFPSNYVKLTT [D16R]	-0.293 ± 0.074
AVCQVIGMYDYTAQNIDELAFNKGQIINVLNKEDPDWWKGEVNGQVGLFPSNYVKLTT [D16I]	-0.108 ± 0.13
AVCQVIGMYDYTAQNSDELAFNKGQIINVLNKEDPDWWKGEVNGQVGLFPSNYVKLTT [D16S]	-0.296 ± 0.089
AVCQVIGMYDYTAQNADELAFNKGQIINVLNKEDPDWWKGEVNGQVGLFPSNYVKLTT [D16A]	-0.232 ± 0.096
AVCQVIGMYDYTAQNGDELAFNKGQIINVLNKEDPDWWKGEVNGQVGLFPSNYVKLTT [D16G]	-0.121 ± 0.077
AVCQVIGMYDYTAQNCDELAFNKGQIINVLNKEDPDWWKGEVNGQVGLFPSNYVKLTT [D16C]	-0.166 ± 0.11
AVCQVIGMYDYTAQNTDELAFNKGQIINVLNKEDPDWWKGEVNGQVGLFPSNYVKLTT [D16T]	-0.232 ± 0.11
AVCQVIGMYDYTAQNWDELAFNKGQIINVLNKEDPDWWKGEVNGQVGLFPSNYVKLTT [D16W]	-0.726 ± 0.12
AVCQVIGMYDYTAQNPDELAFNKGQIINVLNKEDPDWWKGEVNGQVGLFPSNYVKLTT [D16P]	-0.259 ± 0.13
AVCQVIGMYDYTAQNEDELAFNKGQIINVLNKEDPDWWKGEVNGQVGLFPSNYVKLTT [D16E]	0.059 ± 0.12
AVCQVIGMYDYTAQNNDELAFNKGQIINVLNKEDPDWWKGEVNGQVGLFPSNYVKLTT [D16N]	-0.302 ± 0.15
AVCQVIGMYDYTAQNMDELAFNKGQIINVLNKEDPDWWKGEVNGQVGLFPSNYVKLTT [D16M]	-0.225 ± 0.11
AVCQVIGMYDYTAENDDELAFNKGQIINVLNKEDPDWWKGEVNGQVGLFPSNYVKLTT [Q14E]	-0.122 ± 0.18
AVCQVIGMYDYTAPNDDELAFNKGQIINVLNKEDPDWWKGEVNGQVGLFPSNYVKLTT [Q14P]	-0.844 ± 0.14
AVCQVIGMYDYTAWNDDELAFNKGQIINVLNKEDPDWWKGEVNGQVGLFPSNYVKLTT [Q14W]	-0.723 ± 0.12
AVCQVIGMYDYTAVNDDELAFNKGQIINVLNKEDPDWWKGEVNGQVGLFPSNYVKLTT [Q14V]	-0.263 ± 0.12
AVCQVIGMYDYTAKNDDELAFNKGQIINVLNKEDPDWWKGEVNGQVGLFPSNYVKLTT [Q14K]	0.161 ± 0.14
AVCQVIGMYDYTAYNDDELAFNKGQIINVLNKEDPDWWKGEVNGQVGLFPSNYVKLTT [Q14Y]	-0.922 ± 0.26
AVCQVIGMYDYTAGNDDELAFNKGQIINVLNKEDPDWWKGEVNGQVGLFPSNYVKLTT [Q14G]	-0.186 ± 0.099
AVCQVIGMYDYTADNDDELAFNKGQIINVLNKEDPDWWKGEVNGQVGLFPSNYVKLTT [Q14D]	-0.285 ± 0.2
AVCQVIGMYDYTARNDDELAFNKGQIINVLNKEDPDWWKGEVNGQVGLFPSNYVKLTT [Q14R]	0.038 ± 0.073

Variant	abundance fitness
AVCQVIGMYDYTAANDDELAFNKGQIINVLNKEDPDWWKGEVNGQVGLFPSNYVKLTT [Q14A]	-0.267 ± 0.15
AVCQVIGMYDYTAHNDDELAFNKGQIINVLNKEDPDWWKGEVNGQVGLFPSNYVKLTT [Q14H]	-0.505 ± 0.22
AVCQVIGMYDYTACNDDELAFNKGQIINVLNKEDPDWWKGEVNGQVGLFPSNYVKLTT [Q14C]	-0.582 ± 0.16
AVCQVIGMYDYTATNDDELAFNKGQIINVLNKEDPDWWKGEVNGQVGLFPSNYVKLTT [Q14T]	-0.255 ± 0.11
AVCQVIGMYDYTALNDDELAFNKGQIINVLNKEDPDWWKGEVNGQVGLFPSNYVKLTT [Q14L]	-0.441 ± 0.087
AVCQVIGMYDYTAINDDELAFNKGQIINVLNKEDPDWWKGEVNGQVGLFPSNYVKLTT [Q14I]	-0.58 ± 0.19
AVCQVIGMYDYTAMNDDELAFNKGQIINVLNKEDPDWWKGEVNGQVGLFPSNYVKLTT [Q14M]	-0.284 ± 0.13
AVCQVIGMYDYTAQHDDELAFNKGQIINVLNKEDPDWWKGEVNGQVGLFPSNYVKLTT [N15H]	-0.433 ± 0.16
AVCQVIGMYDYTAQQDDELAFNKGQIINVLNKEDPDWWKGEVNGQVGLFPSNYVKLTT [N15Q]	-0.185 ± 0.1
AVCQVIGMYDYTAQIDDELAFNKGQIINVLNKEDPDWWKGEVNGQVGLFPSNYVKLTT [N15I]	-0.664 ± 0.25
AVCQVIGMYDYTAQFDDELAFNKGQIINVLNKEDPDWWKGEVNGQVGLFPSNYVKLTT [N15F]	-0.539 ± 0.21
AVCQVIGMYDYTAQEDDELAFNKGQIINVLNKEDPDWWKGEVNGQVGLFPSNYVKLTT [N15E]	-0.17 ± 0.11
AVCQVIGMYDYTAQADDELAFNKGQIINVLNKEDPDWWKGEVNGQVGLFPSNYVKLTT [N15A]	-0.131 ± 0.095
AVCQVIGMYDYTAQKDDELAFNKGQIINVLNKEDPDWWKGEVNGQVGLFPSNYVKLTT [N15K]	0.047 ± 0.11
AVCQVIGMYDYTAQGDDELAFNKGQIINVLNKEDPDWWKGEVNGQVGLFPSNYVKLTT [N15G]	0.047 ± 0.085
AVCQVIGMYDYTAQSDDELAFNKGQIINVLNKEDPDWWKGEVNGQVGLFPSNYVKLTT [N15S]	0.085 ± 0.096
AVCQVIGMYDYTAQTDDELAFNKGQIINVLNKEDPDWWKGEVNGQVGLFPSNYVKLTT [N15T]	0.024 ± 0.12
AVCQVIGMYDYTAQLDDELAFNKGQIINVLNKEDPDWWKGEVNGQVGLFPSNYVKLTT [N15L]	-0.612 ± 0.087
AVCQVIGMYDYTAQVDDELAFNKGQIINVLNKEDPDWWKGEVNGQVGLFPSNYVKLTT [N15V]	-0.639 ± 0.1
AVCQVIGMYDYTAQRDDELAFNKGQIINVLNKEDPDWWKGEVNGQVGLFPSNYVKLTT [N15R]	0.038 ± 0.075
AVCQVIGMYDYTAQWDDELAFNKGQIINVLNKEDPDWWKGEVNGQVGLFPSNYVKLTT [N15W]	-0.635 ± 0.12
AVCQVIGMYDYTAQPDDELAFNKGQIINVLNKEDPDWWKGEVNGQVGLFPSNYVKLTT [N15P]	-0.964 ± 0.17
AVCQVIGMYDYTAQDDDELAFNKGQIINVLNKEDPDWWKGEVNGQVGLFPSNYVKLTT [N15D]	-0.185 ± 0.14
